Laboratory results as given in the supplement of paper PMC12458215.
± gives the uncertainty stated by the source.

Tested on: HEK293T
Assay: plasma membrane surface immunostaining intensity (anti-HA, deep receptor scanning) (arbitrary fluorescence units); higher = higher plasma membrane expression

| Sequence | plasma membrane surface immunostaining intensity (GPCR class: A) | plasma membrane surface immunostaining intensity (GPCR class: A (Olfactory)) | other results |
| --- | --- | --- | --- |
| MAWRGAGPSVPGAPGGVGLSLGLLLQLLLLLGPARGFGDEEERRCDPIRISMCQNLGYNVTKMPNLVGHELQTDAELQLTTFTPLIQYGCSSQLQFFLCSVYVPMCTEKINIPIGPCGGMCLSVKRRCEPVLKEFGFAWPESLNCSKFPPQNDHNHMCMEGPGDEEVPLPHKTPIQPGEECHSVGTNSDQYIWVKRSLNCVLKCGYDAGLYSRSAKEFTDIWMAVWASLCFISTAFTVLTFLIDSSRFSYPERPIIFLSMCYNIYSIAYIVRLTVGRERISCDFEEAAEPVLIQEGLKNTGCAIIFLLMYFFGMASSIWWVILTLTWFLAAGLKWGHEAIEMHSSYFHIAAWAIPAVKTIVILIMRLVDADELTGLCYVGNQNLDALTGFVVAPLFTYLVIGTLFIAAGLVALFKIRSNLQKDGTKTDKLERLMVKIGVFSVLYTVPATCVIACYFYEISNWALFRYSADDSNMAVEMLKIFMSLLVGITSGMWIWSAKTLHTWQKCSNRLVNSGKVKREKRGNGWVKPGKGSETVV [FZD4] |  |  | plasma membrane surface immunostaining intensity (GPCR class: F): 5830 ± 270 |
| MCPMLLKNGYNGNATPVTTTAPWASLGLSAKTCNNVSFEESRIVLVVVYSAVCTLGVPANCLTAWLALLQVLQGNVLAVYLLCLALCELLYTGTLPLWVIYIRNQHRWTLGLLACKVTAYIFFCNIYVSILFLCCISCDRFVAVVYALESRGRRRRRTAILISACIFILVGIVHYPVFQTEDKETCFDMLQMDSRIAGYYYARFTVGFAIPLSIIAFTNHRIFRSIKQSMGLSAAQKAKVKHSAIAVVVIFLVCFAPYHLVLLVKAAAFSYYRGDRNAMCGLEERLYTASVVFLCLSTVNGVADPIIYVLATDHSRQEVSRIHKGWKEWSMKTDVTRLTHSRDTEELQSPVALADHYTFSRPVHPPGSPCPAKRLIEESC [GPR132] | 372 ± 74 |  |  |
| MCSGNQTSQNQTASTDFTLTGLFAESKHAALLYTVTFLLFLMALTGNALLILLIHSEPRLHTPMYFFISQLALMDLMYLCVTVPKMLVGQVTGDDTISPSGCGIQMFFYLTLAGAEVFLLAAMAYDRYAAVCRPLHYPLLMNQRVCQLLVSACWVLGMVDGLLLTPITMSFPFCQSRKILSFFCETPALLKLSCSDVSLYKTLMYLCCILMLLAPIMVISSSYTLILHLIHRMNSAAGHRKALATCSSHMIIVLLLFGASFYTYMLPSSYHTAEQDMMVSAFYTIFTPVLNPLIYSLRNKDVTRALRSMMQSRMNQEK [OR2T3] |  | 450 ± 200 |  |
| MCWTMPSPFTGSSTRNMESGNQSTVTEFIFTGFPQLQDGSLLYFFPLLFIYTFIIIDNLLIFSAVRLDTHLHNPMYNFISIFSFLEIWYTTATIPKMLSNLISEKKAISMTGCILQMYFFHSLENSEGILLTTMAIDRYVAICNPLRYQMIMTPRLCAQLSAGSCLFGFLILLPEIVMISTLPFCGPNQIHQIFCDLVPVLSLACTDTSMILIEDVIHAVTIIITFLIIALSYVRIVTVILRIPSSEGRQKAFSTCAGHLMVFPIFFGSVSLMYLRFSDTYPPVLDTAIALMFTVLAPFFNPIIYSLRNKDMNNAIKKLFCLQKVLNKPGG [OR6K3] |  | 197 ± 66 |  |
| MDAALLHSLLEANCSLALAEELLLDGWGPPLDPEGPYSYCNTTLDQIGTCWPRSAAGALVERPCPEYFNGVKYNTTRNAYRECLENGTWASKINYSQCEPILDDKQRKYDLHYRIALVVNYLGHCVSVAALVAAFLLFLALRSIRCLRNVIHWNLITTFILRNVMWFLLQLVDHEVHESNEVWCRCITTIFNYFVVTNFFWMFVEGCYLHTAIVMTYSTERLRKCLFLFIGWCIPFPIIVAWAIGKLYYENEQCWFGKEPGDLVDYIYQGPIILVLLINFVFLFNIVRILMTKLRASTTSETIQYRKAVKATLVLLPLLGITYMLFFVNPGEDDLSQIMFIYFNSFLQSFQGFFVSVFYCFFNGEVRSAVRKRWHRWQDHHSLRVPMARAMSIPTSPTRISFHSIKQTAAV [CRHR2] |  |  | plasma membrane surface immunostaining intensity (GPCR class: B): 2380 ± 560 |
| MDFLNSSDQNLTSEELLNRMPSKILVSLTLSGLALMTTTINSLVIAAIIVTRKLHHPANYLICSLAVTDFLVAVLVMPFSIVYIVRESWIMGQVVCDIWLSVDITCCTCSILHLSAIALDRYRAITDAVEYARKRTPKHAGIMITIVWIISVFISMPPLFWRHQGTSRDDECIIKHDHIVSTIYSTFGAFYIPLALILILYYKIYRAAKTLYHKRQASRIAKEEVNGQVLLESGEKSTKSVSTSYVLEKSLSDPSTDFDKIHSTVRSLRSEFKHEKSWRRQKISGTRERKAATTLGLILGAFVICWLPFFVKELVVNVCDKCKISEEMSNFLAWLGYLNSLINPLIYTIFNEDFKKAFQKLVRCRC [HTR1F] | 2040 ± 280 |  |  |
| MDGSNVTSFVVEEPTNISTGRNASVGNAHRQIPIVHWVIMSISPVGFVENGILLWFLCFRMRRNPFTVYITHLSIADISLLFCIFILSIDYALDYELSSGHYYTIVTLSVTFLFGYNTGLYLLTAISVERCLSVLYPIWYRCHRPKYQSALVCALLWALSCLVTTMEYVMCIDREEESHSRNDCRAVIIFIAILSFLVFTPLMLVSSTILVVKIRKNTWASHSSKLYIVIMVTIIIFLIFAMPMRLLYLLYYEYWSTFGNLHHISLLFSTINSSANPFIYFFVGSSKKKRFKESLKVVLTRAFKDEMQPRRQKDNCNTVTVETVV [MAS1] | 782 ± 65 |  |  |
| MDGTNGSTQTHFILLGFSDRPHLERILFVVILIAYLLTLVGNTTIILVSRLDPHLHTPMYFFLAHLSFLDLSFTTSSIPQLLYNLNGCDKTISYMGCAIQLFLFLGLGGVECLLLAVMAYDRCVAICKPLHYMVIMNPRLCRGLVSVTWGCGVANSLAMSPVTLRLPRCGHHEVDHFLREMPALIRMACVSTVAIEGTVFVLAVGVVLSPLVFILLSYSYIVRAVLQIRSASGRQKAFGTCGSHLTVVSLFYGNIIYMYMQPGASSSQDQGMFLMLFYNIVTPLLNPLIYTLRNREVKGALGRLLLGKRELGKE [OR2W3] |  | 129 ± 7.6 |  |
| MDHCGALFLCLCLLTLQNATTETWEELLSYMENMQVSRGRSSVFSSRQLHQLEQMLLNTSFPGYNLTLQTPTIQSLAFKLSCDFSGLSLTSATLKRVPQAGGQHARGQHAMQFPAELTRDACKTRPRELRLICIYFSNTHFFKDENNSSLLNNYVLGAQLSHGHVNNLRDPVNISFWHNQSLEGYTLTCVFWKEGARKQPWGGWSPEGCRTEQPSHSQVLCRCNHLTYFAVLMQLSPALVPAELLAPLTYISLVGCSISIVASLITVLLHFHFRKQSDSLTRIHMNLHASVLLLNIAFLLSPAFAMSPVPGSACTALAAALHYALLSCLTWMAIEGFNLYLLLGRVYNIYIRRYVFKLGVLGWGAPALLVLLSLSVKSSVYGPCTIPVFDSWENGTGFQNMSICWVRSPVVHSVLVMGYGGLTSLFNLVVLAWALWTLRRLRERADAPSVRACHDTVTVLGLTVLLGTTWALAFFSFGVFLLPQLFLFTILNSLYGFFLFLWFCSQRCRSEAEAKAQIEAFSSSQTTQ [ADGRG5] |  |  | plasma membrane surface immunostaining intensity (GPCR class: B): 512 ± 20 |
| MDHQDPYSVQATAAIAAAITFLILFTIFGNALVILAVLTSRSLRAPQNLFLVSLAAADILVATLIIPFSLANELLGYWYFRRTWCEVYLALDVLFCTSSIVHLCAISLDRYWAVSRALEYNSKRTPRRIKCIILTVWLIAAVISLPPLIYKGDQGPQPRGRPQCKLNQEAWYILASSIGSFFAPCLIMILVYLRIYLIAKRSNRRGPRAKGGPGQGESKQPRPDHGGALASAKLPALASVASAREVNGHSKSTGEKEEGETPEDTGTRALPPSWAALPNSGQGQKEGVCGASPEDEAEEEEEEEEEEEECEPQAVPVSPASACSPPLQQPQGSRVLATLRGQVLLGRGVGAIGGQWWRRRAQLTREKRFTFVLAVVIGVFVLCWFPFFFSYSLGAICPKHCKVPHGLFQFFFWIGYCNSSLNPVIYTIFNQDFRRAFRRILCRPWTQTAW [ADRA2B] | 6390 ± 13 |  |  |
| MDISEGNKTLVTEFVLTGLTDRPWLHVLFFVVFLVVYLITMVGNLGLIVLIWNDPHLHMPMYLFLGGLAFSDACTSTSITPRMLVNFLDKTAMISLAECITQFYFFASSATTECFLLVMMAYDRYVAICNPLLYPVMMSNKLSAQLLSISYVIGFLHPLVHVSLLLRLTFCRFNIIHYFYCEILQLFKISCNGPSINALMIFIFGAFIQIPTLMTIIISYTRVLFDILKKKSEKGRSKAFSTCGAHLLSVSLYYGTLIFMYVRPASGLAEDQDKVYSLFYTIIIPLLNPFIYSLRNKKVMHALRRVIRK [OR5AC2] |  | 166 ± 48 |  |
